Here are results for one substance from PMC5778036.

In this assay the target is CCR5 expressed on the surface of pancreatic cancer cells (human (endogenous in AsPC-1, BxPC-3, MIA PaCa-2)) (UniProt P51681).
UniProt P51681, sequence (P51681 whole entry): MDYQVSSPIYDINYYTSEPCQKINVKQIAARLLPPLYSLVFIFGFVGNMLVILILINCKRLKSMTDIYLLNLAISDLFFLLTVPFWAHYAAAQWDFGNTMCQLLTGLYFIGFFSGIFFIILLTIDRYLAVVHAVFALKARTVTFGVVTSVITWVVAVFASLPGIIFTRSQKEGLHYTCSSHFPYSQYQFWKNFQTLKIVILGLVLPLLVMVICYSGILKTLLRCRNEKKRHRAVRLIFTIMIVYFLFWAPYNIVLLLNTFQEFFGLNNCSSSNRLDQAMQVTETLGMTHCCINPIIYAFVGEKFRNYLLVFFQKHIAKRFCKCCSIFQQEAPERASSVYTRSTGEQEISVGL

With “CCL5 (CC chemokine ligand 5) recombinant protein (from UniProt P13501 24-91)”, the CCR5 mRNA (qRT-PCR) in AsPC-1 cells in presence of CCL5, fold against untreated; decreased by maraviroc came out at 11 fold; the CCR5 mRNA (qRT-PCR) in BxPC-3 cells in presence of CCL5, fold against untreated; decreased by maraviroc is 7 fold; the CCR5 mRNA (qRT-PCR) in MIA PaCa-2 cells in presence of CCL5, fold against untreated; decreased by maraviroc came to 4 fold.
